Source: doi:10.1101/2021.01.13.426511

Biological target: phospho His-cSrcKD-K295M/Y416F (human)
Experiment: BLI

Substance | Kd | kon
rPTPεD1-C335S (D1 domain of receptor protein tyrosine phosphatase epsilon, substrate-trapping mutant) (domain or fragment) | 34 µM | 998 M⁻¹ s⁻¹
rPTPεD1-C335S/R220E (domain or fragment) | 257 µM | 128 M⁻¹ s⁻¹
